Results as given in US20080044815A1, “Genetic Screen for Interaction Interface Mapping” (priority 2003, published 2008).
“Also recorded” adds a separate entry of the source.

T1: MKK7 (Mus musculus, UniProt Q8CE90)
T1 construct: expressed in transfected cells; host or cells: COS cells
T1 sequence (Q8CE90 1-419 isoform Q8CE90-2): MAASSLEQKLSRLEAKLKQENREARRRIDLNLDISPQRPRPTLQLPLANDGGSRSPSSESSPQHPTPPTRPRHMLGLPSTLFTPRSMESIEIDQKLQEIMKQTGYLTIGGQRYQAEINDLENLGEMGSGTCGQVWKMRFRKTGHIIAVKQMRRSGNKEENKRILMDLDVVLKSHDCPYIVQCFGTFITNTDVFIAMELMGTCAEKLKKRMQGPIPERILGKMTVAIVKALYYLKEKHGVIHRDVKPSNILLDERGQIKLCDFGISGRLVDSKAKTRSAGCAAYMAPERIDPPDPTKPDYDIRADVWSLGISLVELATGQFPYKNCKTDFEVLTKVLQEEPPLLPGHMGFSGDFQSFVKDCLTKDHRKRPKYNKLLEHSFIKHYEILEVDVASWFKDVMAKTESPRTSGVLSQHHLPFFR

B1: Leu-131-Arg: single point mutant of human JNK1 (SEQ ID NO: 1) (protein)
chain: MSRSKRDNNFYSVEIGDSTFTVLKRYQNLKPIGSGAQGIVCAAYDAILERNVAIKKLSRPFQNQTHAKRAYRELVLMKCVNHKNIIGLLNVFTPQKSLEEFQDVYIVMELMDANLCQVIQMELDHERMSYRLYQMLCGIKHLHSAGIIHRDLKPSNIVVKSDCTLKILDFGLARTAGTSFMMTPYVVTRYYRAPEVILGMGYKENVDLWSVGCIMGEMVCHKILFPGRDYIDQWNKVIEQLGTPCPEFMKKLQPTVRTYVENRPKYAGYSFEKLFPDVLFPADSEHNKLKASQARDLLSKMLVIDASKRISVDEALQHPYINVWYDPSEAEAPPPKIPDKQLDEREHTIEEWKELIYKEVMDLEERTKNGVIRGQPSPLAQVQQ
modifications: homo sapiens
B2: Tyr-320-His: single point mutant of human JNK1 (SEQ ID NO: 1) (protein)
chain: MSRSKRDNNFYSVEIGDSTFTVLKRYQNLKPIGSGAQGIVCAAYDAILERNVAIKKLSRPFQNQTHAKRAYRELVLMKCVNHKNIIGLLNVFTPQKSLEEFQDVYIVMELMDANLCQVIQMELDHERMSYLLYQMLCGIKHLHSAGIIHRDLKPSNIVVKSDCTLKILDFGLARTAGTSFMMTPYVVTRYYRAPEVILGMGYKENVDLWSVGCIMGEMVCHKILFPGRDYIDQWNKVIEQLGTPCPEFMKKLQPTVRTYVENRPKYAGYSFEKLFPDVLFPADSEHNKLKASQARDLLSKMLVIDASKRISVDEALQHPHINVWYDPSEAEAPPPKIPDKQLDEREHTIEEWKELIYKEVMDLEERTKNGVIRGQPSPLAQVQQ
modifications: homo sapiens
B3: wildtype JNK1: FLAG-tagged wild-type human JNK1 (SEQ ID NO: 1) expressed from pCMV-FLAG-JNK1 (protein)
chain: MSRSKRDNNFYSVEIGDSTFTVLKRYQNLKPIGSGAQGIVCAAYDAILERNVAIKKLSRPFQNQTHAKRAYRELVLMKCVNHKNIIGLLNVFTPQKSLEEFQDVYIVMELMDANLCQVIQMELDHERMSYLLYQMLCGIKHLHSAGIIHRDLKPSNIVVKSDCTLKILDFGLARTAGTSFMMTPYVVTRYYRAPEVILGMGYKENVDLWSVGCIMGEMVCHKILFPGRDYIDQWNKVIEQLGTPCPEFMKKLQPTVRTYVENRPKYAGYSFEKLFPDVLFPADSEHNKLKASQARDLLSKMLVIDASKRISVDEALQHPYINVWYDPSEAEAPPPKIPDKQLDEREHTIEEWKELIYKEVMDLEERTKNGVIRGQPSPLAQVQQ
modifications: FLAG tag; homo sapiens
B4: Arg-309-Trp: single point mutant of human JNK1 (SEQ ID NO: 1) (protein)
chain: MSRSKRDNNFYSVEIGDSTFTVLKRYQNLKPIGSGAQGIVCAAYDAILERNVAIKKLSRPFQNQTHAKRAYRELVLMKCVNHKNIIGLLNVFTPQKSLEEFQDVYIVMELMDANLCQVIQMELDHERMSYLLYQMLCGIKHLHSAGIIHRDLKPSNIVVKSDCTLKILDFGLARTAGTSFMMTPYVVTRYYRAPEVILGMGYKENVDLWSVGCIMGEMVCHKILFPGRDYIDQWNKVIEQLGTPCPEFMKKLQPTVRTYVENRPKYAGYSFEKLFPDVLFPADSEHNKLKASQARDLLSKMLVIDASKWISVDEALQHPYINVWYDPSEAEAPPPKIPDKQLDEREHTIEEWKELIYKEVMDLEERTKNGVIRGQPSPLAQVQQ
modifications: homo sapiens

Legend:
[1] = molecular target: T2, TI-JIP (Homo sapiens, UniProt Q9UQF2); assay: Yeast two-hybrid screening / β-galactosidase overlay assay of JNK1 point mutants for interaction with TI-JIP; format: cell-based; conditions: single point mutants of JNK1, full-length expression confirmed by Western blot
T2 construct: Oligonucleotides encoding TI-JIP were annealed; expressed in transfected cells; host or cells: yeast diploids, RFY 206 (pSH18-34, pGILDA-TI-JIP) mated to PRT 49 (JNK mutants in pJG4-5)

[2] = tested on: GST-MKK4(ED); assay: In vitro phosphorylation (activation) of immunoprecipitated JNK by constitutively active MKK4; format: biochemical; conditions: [32P]-ATP, relative to autophosphorylation
Experimental: FIG. 15a is a representation showing that JNK mutants were not activated by constitutively-active MKK4 (MKK4(ED)) or MKK7. […] JNK proteins were immunoprecipitated from transfected cell lysates, and immunoprecipitates were used as the substrates in in vitro kinase assays with GST-MKK4(ED). Following separation by SDS-PAGE, activation of JNK and mutant proteins was assessed by autoradiography (upper panel) (n=2). Coomassie Blue staining (lower panel) confirmed substrate loading.
FLAG-JNK1 proteins were immunoprecipitated by addition of anti-FLAG M2 (SIGMA) and incubation for 1 h on ice and then addition of Protein G-Sepharose and incubation at 4° C. for 2 h with rotation. Immunocomplexes were washed three times with lysis buffer, then once with reaction buffer (20 mM HEPES, 20 mM MgCl2, 20 mM β-glycerophosphate, 500 μM DTT, 100 μM Na3VO4; pH 7.6). For assays of JNK activity, the washed complexes were resuspended in 40 μL of reaction buffer containing 10 μg GST-c-Jun (1-135), 20 μM ATP and 1 μCi [λ-^32P]ATP and incubated at 30° C. for 30 min. Reactions were stopped by addition of 3× SDS-PAGE Sample Buffer and proteins were separated by SDS-PAGE. JNK activity towards GST-c-Jun (1-135) was visualized by autoradiography and quantitated by Cerenkov counting. For assays of JNK activation, the washed beads were incubated with 30 μL of reaction buffer containing 20 μM ATP, 5 μCi [λ-^32P]ATP and 1 μg of GST-MKK4(ED) at 30° C. for 1 h with occasional mixing. After removal of the supernatant, the beads were washed in 200 μl ice-cold lysis buffer and then heated for 5 min at 100° C. in 15 μL of 3× SDS-PAGE sample buffer, prior to separation by SDS-PAGE. Gels were Coomassie-stained, dried and used for autoradiography. Gel bands corresponding to FLAG-JNK were excised from the gels and their radioactivity quantitated by Cerenkov counting. Where immunoprecipitated GST-MKK7β1 was used to activate JNK, reactions were performed as above, but with 1 μCi [λ-^32P]ATP and incubation at 30° C. for 30 min.

[3] = molecular target: T1, MKK7; assay: Phospho-blotting for dual-phosphorylated JNK in COS cells co-transfected with MKK7; format: cell-based; conditions: antibody to dual-phosphorylated JNK
[4] = tested on: GST-c-Jun(1-135); assay: In vitro kinase assay of FLAG-immunoprecipitated JNK1 from transfected COS cells towards GST-c-Jun(1-135); format: biochemical
Experimental: FIG. 14b is a representation showing a typical autoradiograph (upper panel) illustrating phosphorylation of GST-c-Jun(1-135) by wild-type (WT) JNK and mutants (n=2) for COS cells transfected as described in the legend to FIG. 14a. Transfected cells were incubated without sorbitol or exposed to hyperosmotic shock (0.5 M sorbitol, 30 min) prior to lysis. FLAG-tagged JNK1 and mutants were immunoprecipitated from cell lysates and then assayed for activity towards GST-c-Jun(1-135) using in vitro kinase assays. Coomassie Blue staining (lower panel) confirmed substrate loading.
FIG. 14c is a photographic representation showing a typical autoradiograph (upper panel) illustrating phosphorylation of GST-c-Jun(1-135) by wild-type (WT) JNK and mutants (n=2) for COS cells transfected as described in the legend to FIG. 14a, or co-transfected with a constitutively-active MEKK1 construct (CA-MEKK1). […]
FLAG-JNK1 proteins were immunoprecipitated by addition of anti-FLAG M2 (SIGMA) and incubation for 1 h on ice and then addition of Protein G-Sepharose and incubation at 4° C. for 2 h with rotation. […] JNK activity towards GST-c-Jun (1-135) was visualized by autoradiography and quantitated by Cerenkov counting. […] Gel bands corresponding to FLAG-JNK were excised from the gels and their radioactivity quantitated by Cerenkov counting. […]

| Molecule | interaction of JNK1 mutant with TI-JIP [1] | interaction of JNK1 mutant with TI-JIP ([1]; listed as L131→R131) | phosphorylation/activation of JNK by active MKK4 [2] | phosphorylation/activation of JNK by MKK7 [3] | increase in c-Jun phosphorylation relative to cells transfected with JNK alone ([4]; COS cells co-transfected with constitutively-active MEKK1 (CA-MEKK1)) [fold] | activation of c-Jun phosphorylation over corresponding unstimulated cells ([4]; COS cells, hyperosmotic shock 0.5 M sorbitol, 30 min) [fold] |
| --- | --- | --- | --- | --- | --- | --- |
| B1 | incapable of interaction with TI-JIP; also recorded: did not interact with TI-JIP | prevent interaction of JNK with TI-JIP | impaired in their activation | impaired in their activation |  |  |
| B2 |  |  | impaired in their activation |  |  |  |
| B3 |  |  | increased the phosphorylation | strongly phosphorylated by MKK7 | 240 | 5.5 |
| B4 |  |  | impaired in their activation |  |  |  |
